Test results as given in the Human Domainome abundance scans (Beltran et al. 2025).

B1: Formin-binding protein 4, residues 200 to 261; numbered along this chain, Q8N3X1 (parent)
chain: SGWQYDTQCSLAGVGIEMGDWQEVWDENTGCYYYWNTQTNEVTWELPQYLATQVQGLQHYQP

Variants of: B1
Test: abundance fitness (aPCA) (normalised: wild type 0, dead -1); higher = more abundant; growth selection in yeast, the domain comes from the species named
Settings: Homo sapiens

Abundance fitness, by site and new letter:
N36: K -0.663; R -0.657; T -0.993; I -1.13; L -0.861; M -0.603; D -0.612; S -0.553; C -0.236; Q -0.121; G -0.64; P -0.897; V -1.02; W -0.814; F -0.744; E -0.287; A -0.645; Y -0.961
T39: D -0.151; M -0.386; V -0.877; Y -0.579; F -0.577; H -0.34; W -0.568; P -0.873; Q -0.226; S 0.017; E -0.37; A -0.411; G -0.362; K -0.123; L -0.461; C -0.307; I -0.354; R -0.306; N -0.093
Y33: P -0.676; D -0.706; L -0.477; R -0.201; F -0.281; T -0.335; I -0.566; S -0.212; W -0.52; A -0.691; H -0.169; E -0.458; M -0.316; C -0.213; K 0.016; V -0.447; Q -0.389; G -0.576
D26: A -0.176; R -0.515; W -0.256; F -0.296; G -0.373; T -0.178; S -0.007; C -0.228; E -0.148; P -1.14; I -0.593; M -0.09; N -0.084; Y -0.322; K -0.345; V -0.384; Q -0.181; L -0.5
Q38: W -0.216; K 0.138; V -0.126; M -0.11; S -0.019; T 0.254; N -0.266; E -0.081; L -0.133; G -0.077; I -0.086; R 0.042; F -0.346; P -0.541; Y 0.128; D 0.247; H -0.022
E23: M -0.964; T -0.582; Q -0.431; R -0.59; W -1.06; A -0.817; V -1.07; C -0.862; Y -0.58; I -0.759; S -0.682; H -0.443; L -0.637; F -0.511; P -0.697
W35: K 0.355; R 0.184; E 0.328; V -0.104; T 0.172; L -0.112; Y -0.271; D -0.159; A 0.196; H 0.166; G -0.297; P -1.04; M -0.189; I 0.09; S 0.066; F 0.112
T37: A 0.061; Y -0.243; R -0.111; N -0.166; G -0.135; D -0.171; E -0.297; S 0.019; Q 0.01; C 0.089; K 0.09; L -0.133; H -0.009; I -0.022; F -0.151; V -0.058
V24: F -0.168; A -0.409; I -0.399; W -0.437; Q 0.097; L -0.074; T -0.036; Y -0.145; G -0.269; M -0.361; N -0.257; D -0.215; E -0.217; R -0.145; H -0.163; P -1.05
Q22: A -0.121; F -0.423; M -0.217; D -0.371; L -0.315; S -0.136; H -0.641; C -0.459; V 0.063; R 0.006; G -0.234; W -0.61; N -0.023; E 0.042
